B1: IgG1-F1124 (antibody)
heavy: QVQLQESGPGLVKPSETLSLTCAVSGHSISHDHAWSWVRQPPGEGLEWIGFISYSGITNYNPSLQGRVTISRDNSKNTLYLQMNSLRAEDTAVYYCARSLARTTAMDYWGEGTLVTVSSASTKGPSVFPLAPSSKSTSGGTAALGCLVKDYFPEPVTVSWNSGALTSGVHTFPAVLQSSGLYSLSSVVTVPSSSLGTQTYICNVNHKPSNTKVDKKVEPKSCDKTHTCPPCPAPELLGGPSVFLFPPKPKDVLYISRTPEVTCVVVDVSHEDPEVKFNWYVDGVEVHNAKTKPREEQYNSTYRVVSVLQPLHADWLNGKEYKCKVSNKALPAPIEKTISKAKGQPREPQVYTLPPSRDELTKNQVSLTCLVKGFYPSDIAVEWESNGQPENNYKTTPPVLDSDGSFFLYSKLTVDKSRWQQGNVFSCSVMHEALHYHVTRKELSLSP
light: not shown
notes: VH3-IgG1 with Fc substitutions (EU numbering) + L(WT)-CK
B2: IgG1-F1126 (antibody)
heavy: QVQLQESGPGLVKPSETLSLTCAVSGHSISHDHAWSWVRQPPGEGLEWIGFISYSGITNYNPSLQGRVTISRDNSKNTLYLQMNSLRAEDTAVYYCARSLARTTAMDYWGEGTLVTVSSASTKGPSVFPLAPSSKSTSGGTAALGCLVKDYFPEPVTVSWNSGALTSGVHTFPAVLQSSGLYSLSSVVTVPSSSLGTQTYICNVNHKPSNTKVDKKVEPKSCDKTHTCPPCPAPELLGGPSVFLFPPKPKDTLYISRTPEVTCVVVDVSHEDPEVKFNWYVDGVEVHNAKTKPREEQYNSTYRVVSVLAVLHQDWLNGKEYKCKVSNKALPAPIEKTISKAKGQPREPQVYTLPPSRDELTKNQVSLTCLVKGFYPSDIAVEWESNGQPENNYKTTPPVLDSDGSFFLYSKLTVDKSRWQQGNVFSCSVMHEALHYHVTQKSLSLSP
light: not shown
notes: as for B1
B3: IgG1-F1130 (antibody)
heavy: QVQLQESGPGLVKPSETLSLTCAVSGHSISHDHAWSWVRQPPGEGLEWIGFISYSGITNYNPSLQGRVTISRDNSKNTLYLQMNSLRAEDTAVYYCARSLARTTAMDYWGEGTLVTVSSASTKGPSVFPLAPSSKSTSGGTAALGCLVKDYFPEPVTVSWNSGALTSGVHTFPAVLQSSGLYSLSSVVTVPSSSLGTQTYICNVNHKPSNTKVDKKVEPKSCDKTHTCPPCPAPELLGGPSVFLFPPKPKDTLYISRTPEVTCVVVDVSHEDPEVKFNWYVDGVEVHNAKTKPREEQYNSTYRVVSVLAVLHADWLNGKEYKCKVSNKALPAPIEKTISKAKGQPREPQVYTLPPSRDELTKNQVSLTCLVKGFYPSDIAVEWESNGQPENNYKTTPPVLDSDGSFFLYSKLTVDKSRWQQGNVFSCSVMHEALHYHVTQKSLSLSP
light: not shown
notes: as for B1
B4: IgG1-F1128 (antibody)
heavy: QVQLQESGPGLVKPSETLSLTCAVSGHSISHDHAWSWVRQPPGEGLEWIGFISYSGITNYNPSLQGRVTISRDNSKNTLYLQMNSLRAEDTAVYYCARSLARTTAMDYWGEGTLVTVSSASTKGPSVFPLAPSSKSTSGGTAALGCLVKDYFPEPVTVSWNSGALTSGVHTFPAVLQSSGLYSLSSVVTVPSSSLGTQTYICNVNHKPSNTKVDKKVEPKSCDKTHTCPPCPAPELLGGPSVFLFPPKPKDTLYISRTPEVTCVVVDVSHEDPEVKFNWYVDGVEVHNAKTKPREEQYNSTYRVVSVLTVLHHDWLNGKEYKCKVSNKALPAPIEKTISKAKGQPREPQVYTLPPSRDELTKNQVSLTCLVKGFYPSDIAVEWESNGQPENNYKTTPPVLDSDGSFFLYSKLTVDKSRWQQGNVFSCSVMHEALHYHVTQKSLSLSP
light: not shown
notes: as for B1
B5: IgG1-F1129 (antibody)
heavy: QVQLQESGPGLVKPSETLSLTCAVSGHSISHDHAWSWVRQPPGEGLEWIGFISYSGITNYNPSLQGRVTISRDNSKNTLYLQMNSLRAEDTAVYYCARSLARTTAMDYWGEGTLVTVSSASTKGPSVFPLAPSSKSTSGGTAALGCLVKDYFPEPVTVSWNSGALTSGVHTFPAVLQSSGLYSLSSVVTVPSSSLGTQTYICNVNHKPSNTKVDKKVEPKSCDKTHTCPPCPAPELLGGPSVFLFPPKPKDTLYISRTPEVTCVVVDVSHEDPEVKFNWYVDGVEVHNAKTKPREEQYNSTYRVVSVLQVLHHDWLNGKEYKCKVSNKALPAPIEKTISKAKGQPREPQVYTLPPSRDELTKNQVSLTCLVKGFYPSDIAVEWESNGQPENNYKTTPPVLDSDGSFFLYSKLTVDKSRWQQGNVFSCSVMHEALHYHVTQKSLSLSP
light: not shown
notes: as for B1
B6: IgG1-F1134 (antibody)
heavy: QVQLQESGPGLVKPSETLSLTCAVSGHSISHDHAWSWVRQPPGEGLEWIGFISYSGITNYNPSLQGRVTISRDNSKNTLYLQMNSLRAEDTAVYYCARSLARTTAMDYWGEGTLVTVSSASTKGPSVFPLAPSSKSTSGGTAALGCLVKDYFPEPVTVSWNSGALTSGVHTFPAVLQSSGLYSLSSVVTVPSSSLGTQTYICNVNHKPSNTKVDKKVEPKSCDKTHTCPPCPAPELRGGPKVFLFPPKPKDTLYISRTPEVTCVVVDVSHEDPEVKFNWYVDGVEVHNAKTKPREEQYNSTYRVVSVLTVLHQDWLNGKEYKCKVSNKALPAPIEKTISKAKGQPREPQVYTLPPSRDELTKNQVSLTCLVKGFYPSDIAVEWESNGQPENNYKTTPPVLDSDGSFFLYSKLTVDKSRWQQGNVFSCSVMHEALHYHVTRKSLSLSP
light: not shown
notes: as for B1
B7: IgG1-F1131 (antibody)
heavy: QVQLQESGPGLVKPSETLSLTCAVSGHSISHDHAWSWVRQPPGEGLEWIGFISYSGITNYNPSLQGRVTISRDNSKNTLYLQMNSLRAEDTAVYYCARSLARTTAMDYWGEGTLVTVSSASTKGPSVFPLAPSSKSTSGGTAALGCLVKDYFPEPVTVSWNSGALTSGVHTFPAVLQSSGLYSLSSVVTVPSSSLGTQTYICNVNHKPSNTKVDKKVEPKSCDKTHTCPPCPAPELRGGPKVFLFPPKPKDTLYISRTPEVTCVVVDVSHEDPEVKFNWYVDGVEVHNAKTKPREEQYNSTYRVVSVLTVLHQDWLNGKEYKCKVSNKALPAPIEKTISKAKGQPREPQVYTLPPSRDELTKNQVSLTCLVKGFYPSDIAVEWESNGQPENNYKTTPPVLDSDGSFFLYSKLTVDKSRWQQGNEFSCSVMHEALHYHVTQKSLSLSP
light: not shown
notes: as for B1
B8: IgG1-F1133 (antibody)
heavy: QVQLQESGPGLVKPSETLSLTCAVSGHSISHDHAWSWVRQPPGEGLEWIGFISYSGITNYNPSLQGRVTISRDNSKNTLYLQMNSLRAEDTAVYYCARSLARTTAMDYWGEGTLVTVSSASTKGPSVFPLAPSSKSTSGGTAALGCLVKDYFPEPVTVSWNSGALTSGVHTFPAVLQSSGLYSLSSVVTVPSSSLGTQTYICNVNHKPSNTKVDKKVEPKSCDKTHTCPPCPAPELRGGPKVFLFPPKPKDTLYISRTPEVTCVVVDVSHEDPEVKFNWYVDGVEVHNAKTKPREEQYNSTYRVVSVLTVLHQDWLNGKEYKCKVSNKALPAPIEKTISKAKGQPREPQVYTLPPSRDELTKNQVSLTCLVKGFYPSDIAVEWESNGQPENNYKTTPPVLDSDGSFFLYSKLTVDKSRWQQGNVFRCSVMHEALHYHVTQKSLSLSP
light: not shown
notes: as for B1
B9: IgG1-F1127 (antibody)
heavy: QVQLQESGPGLVKPSETLSLTCAVSGHSISHDHAWSWVRQPPGEGLEWIGFISYSGITNYNPSLQGRVTISRDNSKNTLYLQMNSLRAEDTAVYYCARSLARTTAMDYWGEGTLVTVSSASTKGPSVFPLAPSSKSTSGGTAALGCLVKDYFPEPVTVSWNSGALTSGVHTFPAVLQSSGLYSLSSVVTVPSSSLGTQTYICNVNHKPSNTKVDKKVEPKSCDKTHTCPPCPAPELLGGPSVFLFPPKPKDTLYISRTPEVTCVVVDVSHEDPEVKFNWYVDGVEVHNAKTKPREEQYNSTYRVVSVLTVLHADWLNGKEYKCKVSNKALPAPIEKTISKAKGQPREPQVYTLPPSRDELTKNQVSLTCLVKGFYPSDIAVEWESNGQPENNYKTTPPVLDSDGSFFLYSKLTVDKSRWQQGNVFSCSVMHEALHYHVTQKSLSLSP
light: not shown
notes: as for B1

The target of the experiment is T1, soluble human FcRn (heterodimer of FcRn alpha chain and beta2-microglobulin) (human, UniProt P55899 24-297; P61769 21-119).
T1 construct: Expressed in HEK293H and purified on IgG Sepharose; also called hFcRn
T1 sequence (P55899 24-297 limits assumed, chain 1 of 2): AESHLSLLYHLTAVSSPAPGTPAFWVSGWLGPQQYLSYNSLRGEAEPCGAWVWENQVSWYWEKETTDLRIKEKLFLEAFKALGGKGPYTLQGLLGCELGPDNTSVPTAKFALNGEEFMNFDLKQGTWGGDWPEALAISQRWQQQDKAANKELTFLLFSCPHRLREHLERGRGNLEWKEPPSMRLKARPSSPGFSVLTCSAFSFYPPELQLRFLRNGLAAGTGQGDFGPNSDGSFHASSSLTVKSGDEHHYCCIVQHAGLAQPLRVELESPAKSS
T1 sequence (P61769 21-119 limits assumed, chain 2 of 2): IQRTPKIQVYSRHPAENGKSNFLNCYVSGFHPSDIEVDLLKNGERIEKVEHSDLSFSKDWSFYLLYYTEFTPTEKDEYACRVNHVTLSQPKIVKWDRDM
As to the kind of experiment: SPR Biacore T100, antibody captured via protein L, hFcRn analyte, pH 7.0, 25 C.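 Further: KD derived from kinetic ka and kd fits of sensorgrams, CM4 sensor chip, sodium phosphate NaCl Tween20 running buffer, buffer-only injection used as reference.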 On the technique in general: SPR reads the build-up and loss of mass on a sensor chip optically.
Experimental: An appropriate amount of protein L (ACTIGEN) was immobilized onto Sensor chip CM4 (GE Healthcare) by the amino coupling method, and the chip was allowed to capture an antibody of interest. Then, diluted FcRn solutions and running buffer (as a reference solution) were injected to allow human FcRn to interact with the antibody captured on the sensor chip. The running buffer used comprised 50 mmol/l sodium phosphate, 150 mmol/l NaCl, and 0.05% (w/v) Tween20 (pH 7.0). FcRn was diluted using each buffer. The chip was regenerated using 10 mmol/l glycine-HCl (pH 1.5). Assays were carried out exclusively at 25 degrees C. The association rate constant ka (1/Ms) and dissociation rate constant kd (1/s), both of which are kinetic parameters, were calculated based on the sensorgrams obtained in the assays, and KD (M) of each antibody for human FcRn was determined from these values. Each parameter was calculated using Biacore T100 Evaluation Software (GE Healthcare).
The molecule B1 had a Kd of 12 nM.
The figure for B2 is 90 nM.
The molecule B3 returned an equilibrium dissociation constant (Kd) of 55 nM.
To B4 belongs 120 nM; to B5, 45 nM; to B6, 170 nM.
As for B7, the affinity, expressed as Kd, was 130 nM.
B8 registered a Kd of 160 nM.
To B9 belongs 79 nM.

As usually defined, the Kd is the free concentration of one partner at which half of the binding sites on the other are occupied at equilibrium, for simple one-to-one binding. A higher Kd goes with lower affinity.
